We go through one molecule from article PMC2132603.

For this experiment, the target named is T1, Sec17p (S. cerevisiae (endogenous in yeast vacuoles)), P32602.
T1 chain: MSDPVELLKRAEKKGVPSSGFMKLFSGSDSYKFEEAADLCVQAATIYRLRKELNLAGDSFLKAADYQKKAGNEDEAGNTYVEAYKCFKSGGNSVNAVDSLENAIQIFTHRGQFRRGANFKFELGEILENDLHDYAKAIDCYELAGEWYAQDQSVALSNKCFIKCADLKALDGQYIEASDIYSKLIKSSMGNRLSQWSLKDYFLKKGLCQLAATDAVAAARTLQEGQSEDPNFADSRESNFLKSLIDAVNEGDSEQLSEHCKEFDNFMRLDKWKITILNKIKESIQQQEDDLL
As to the kind of experiment: co-IP. The settings on record: remark: other sources report otherwise.

B1: Vam3p, Q12241 1-283 (natural protein)
chain: MSFFDIEAQSSKGNSQQEPQFSTNQKTKELSNLIETFAEQSRVLEKECTKIGSKRDSKELRYKIETELIPNCTSVRDKIESNILIHQNGKLSADFKNLKTKYQSLQQSYNQRKSLFPLKTPISPGTSKERKDIHPRTEAVRQDPESSYISIKVNEQSPLLHNEGQHQLQLQEEQEQQQQGLSQEELDFQTIIHQERSQQIGRIHTAVQEVNAIFHQLGSLVKEQGEQVTTIDENISHLHDNMQNANKQLTRADQHQRDRNKCGKVTLIIIIVVCMVVLLAVLS
B1: the percent of Vam3p coprecipitated with Sec17p was over 50%.
